*1 amine or outer side, *2 acyl side, *3 side chain or, on linkers, in order; H or OH if unused. Where no end group is shown, it is not given here. Side-chain parts run from the residue outwards. [ ]: non-standard residue; d: D form. The star is where a group is joined. C18 diacid = O=C(O)CCCCCCCCCCCCCCCCC(=O)*; C16 diacid = O=C(O)CCCCCCCCCCCCCCC(=O)*; γGlu = O=C(O)[C@H](CCC(=O)[*:2])N[*:1]; αMeL = CC(C)C[C@](C)(N)C(=O)O; Pentanoyl = CCCCC(=O)*; AEEA = NCCOCCOCC(=O)O; Aib = CC(C)(N)C(=O)O; Butyryl = CCCC(=O)*
B1: SEQ ID NO 25 (peptide)
peptide: IVLSLDVPIKLK([AEEA-AEEA-γGlu-γGlu-C18 diacid])Q[Aib]LLKQERQKKQREQAEKN[Aib]QILEQV-NH2
modifications: N-terminus assumed
SMILES: CC[C@H](C)[C@H](N)C(=O)N[C@H](C(=O)N[C@@H](CC(C)C)C(=O)N[C@@H](CO)C(=O)N[C@@H](CC(C)C)C(=O)N[C@@H](CC(=O)O)C(=O)N[C@H](C(=O)N1CCC[C@H]1C(=O)N[C@H](C(=O)N[C@@H](CCCCN)C(=O)N[C@@H](CC(C)C)C(=O)N[C@@H](CCCCNC(=O)COCCOCCNC(=O)COCCOCCNC(=O)CC[C@H](NC(=O)CC[C@H](NC(=O)CCCCCCCCCCCCCCCCC(=O)O)C(=O)O)C(=O)O)C(=O)N[C@@H](CCC(N)=O)C(=O)NC(C)(C)C(=O)N[C@@H](CC(C)C)C(=O)N[C@@H](CC(C)C)C(=O)N[C@@H](CCCCN)C(=O)N[C@@H](CCC(N)=O)C(=O)N[C@@H](CCC(=O)O)C(=O)N[C@@H](CCCNC(=N)N)C(=O)N[C@@H](CCC(N)=O)C(=O)N[C@@H](CCCCN)C(=O)N[C@@H](CCCCN)C(=O)N[C@@H](CCC(N)=O)C(=O)N[C@@H](CCCNC(=N)N)C(=O)N[C@@H](CCC(=O)O)C(=O)N[C@@H](CCC(N)=O)C(=O)N[C@@H](C)C(=O)N[C@@H](CCC(=O)O)C(=O)N[C@@H](CCCCN)C(=O)N[C@@H](CC(N)=O)C(=O)NC(C)(C)C(=O)N[C@@H](CCC(N)=O)C(=O)N[C@H](C(=O)N[C@@H](CC(C)C)C(=O)N[C@@H](CCC(=O)O)C(=O)N[C@@H](CCC(N)=O)C(=O)N[C@H](C(N)=O)C(C)C)[C@@H](C)CC)[C@@H](C)CC)C(C)C)C(C)C
B2: SEQ ID NO 26 (peptide)
peptide: Ac-IVLSLDVPIKLK([AEEA-AEEA-γGlu-γGlu-C18 diacid])Q[Aib]LLKQERQKKQREQAEKN[Aib]QILEQV-NH2
SMILES: CC[C@H](C)[C@H](NC(C)=O)C(=O)N[C@H](C(=O)N[C@@H](CC(C)C)C(=O)N[C@@H](CO)C(=O)N[C@@H](CC(C)C)C(=O)N[C@@H](CC(=O)O)C(=O)N[C@H](C(=O)N1CCC[C@H]1C(=O)N[C@H](C(=O)N[C@@H](CCCCN)C(=O)N[C@@H](CC(C)C)C(=O)N[C@@H](CCCCNC(=O)COCCOCCNC(=O)COCCOCCNC(=O)CC[C@H](NC(=O)CC[C@H](NC(=O)CCCCCCCCCCCCCCCCC(=O)O)C(=O)O)C(=O)O)C(=O)N[C@@H](CCC(N)=O)C(=O)NC(C)(C)C(=O)N[C@@H](CC(C)C)C(=O)N[C@@H](CC(C)C)C(=O)N[C@@H](CCCCN)C(=O)N[C@@H](CCC(N)=O)C(=O)N[C@@H](CCC(=O)O)C(=O)N[C@@H](CCCNC(=N)N)C(=O)N[C@@H](CCC(N)=O)C(=O)N[C@@H](CCCCN)C(=O)N[C@@H](CCCCN)C(=O)N[C@@H](CCC(N)=O)C(=O)N[C@@H](CCCNC(=N)N)C(=O)N[C@@H](CCC(=O)O)C(=O)N[C@@H](CCC(N)=O)C(=O)N[C@@H](C)C(=O)N[C@@H](CCC(=O)O)C(=O)N[C@@H](CCCCN)C(=O)N[C@@H](CC(N)=O)C(=O)NC(C)(C)C(=O)N[C@@H](CCC(N)=O)C(=O)N[C@H](C(=O)N[C@@H](CC(C)C)C(=O)N[C@@H](CCC(=O)O)C(=O)N[C@@H](CCC(N)=O)C(=O)N[C@H](C(N)=O)C(C)C)[C@@H](C)CC)[C@@H](C)CC)C(C)C)C(C)C
B3: SEQ ID NO 95 (peptide)
peptide: Butyryl-VLSLDVPIKLK([AEEA-AEEA-γGlu-C18 diacid])KILLEQEKQKKQREQAETNKQILAQV-NH2
SMILES: CCCC(=O)N[C@H](C(=O)N[C@@H](CC(C)C)C(=O)N[C@@H](CO)C(=O)N[C@@H](CC(C)C)C(=O)N[C@@H](CC(=O)O)C(=O)N[C@H](C(=O)N1CCC[C@H]1C(=O)N[C@H](C(=O)N[C@@H](CCCCN)C(=O)N[C@@H](CC(C)C)C(=O)N[C@@H](CCCCNC(=O)COCCOCCNC(=O)COCCOCCNC(=O)CC[C@H](NC(=O)CCCCCCCCCCCCCCCCC(=O)O)C(=O)O)C(=O)N[C@@H](CCCCN)C(=O)N[C@H](C(=O)N[C@@H](CC(C)C)C(=O)N[C@@H](CC(C)C)C(=O)N[C@@H](CCC(=O)O)C(=O)N[C@@H](CCC(N)=O)C(=O)N[C@@H](CCC(=O)O)C(=O)N[C@@H](CCCCN)C(=O)N[C@@H](CCC(N)=O)C(=O)N[C@@H](CCCCN)C(=O)N[C@@H](CCCCN)C(=O)N[C@@H](CCC(N)=O)C(=O)N[C@@H](CCCNC(=N)N)C(=O)N[C@@H](CCC(=O)O)C(=O)N[C@@H](CCC(N)=O)C(=O)N[C@@H](C)C(=O)N[C@@H](CCC(=O)O)C(=O)N[C@H](C(=O)N[C@@H](CC(N)=O)C(=O)N[C@@H](CCCCN)C(=O)N[C@@H](CCC(N)=O)C(=O)N[C@H](C(=O)N[C@@H](CC(C)C)C(=O)N[C@@H](C)C(=O)N[C@@H](CCC(N)=O)C(=O)N[C@H](C(N)=O)C(C)C)[C@@H](C)CC)[C@@H](C)O)[C@@H](C)CC)[C@@H](C)CC)C(C)C)C(C)C
B4: SEQ ID NO 97 (peptide)
peptide: Ac-IVLSLDVPIKLK([AEEA-AEEA-γGlu-C18 diacid])KILLEQEKQKKQREQAETN[Aib]QILAQV-NH2
SMILES: CC[C@H](C)[C@H](NC(C)=O)C(=O)N[C@H](C(=O)N[C@@H](CC(C)C)C(=O)N[C@@H](CO)C(=O)N[C@@H](CC(C)C)C(=O)N[C@@H](CC(=O)O)C(=O)N[C@H](C(=O)N1CCC[C@H]1C(=O)N[C@H](C(=O)N[C@@H](CCCCN)C(=O)N[C@@H](CC(C)C)C(=O)N[C@@H](CCCCNC(=O)COCCOCCNC(=O)COCCOCCNC(=O)CC[C@H](NC(=O)CCCCCCCCCCCCCCCCC(=O)O)C(=O)O)C(=O)N[C@@H](CCCCN)C(=O)N[C@H](C(=O)N[C@@H](CC(C)C)C(=O)N[C@@H](CC(C)C)C(=O)N[C@@H](CCC(=O)O)C(=O)N[C@@H](CCC(N)=O)C(=O)N[C@@H](CCC(=O)O)C(=O)N[C@@H](CCCCN)C(=O)N[C@@H](CCC(N)=O)C(=O)N[C@@H](CCCCN)C(=O)N[C@@H](CCCCN)C(=O)N[C@@H](CCC(N)=O)C(=O)N[C@@H](CCCNC(=N)N)C(=O)N[C@@H](CCC(=O)O)C(=O)N[C@@H](CCC(N)=O)C(=O)N[C@@H](C)C(=O)N[C@@H](CCC(=O)O)C(=O)N[C@H](C(=O)N[C@@H](CC(N)=O)C(=O)NC(C)(C)C(=O)N[C@@H](CCC(N)=O)C(=O)N[C@H](C(=O)N[C@@H](CC(C)C)C(=O)N[C@@H](C)C(=O)N[C@@H](CCC(N)=O)C(=O)N[C@H](C(N)=O)C(C)C)[C@@H](C)CC)[C@@H](C)O)[C@@H](C)CC)[C@@H](C)CC)C(C)C)C(C)C
B5: SEQ ID NO 19 (peptide)
peptide: Ac-IVLSLDVPIK[αMeL]K([γGlu-C16 diacid])QILLKQERQKKQREQAEKN[Aib]QILEQV-NH2
SMILES: CC[C@H](C)[C@H](NC(C)=O)C(=O)N[C@H](C(=O)N[C@@H](CC(C)C)C(=O)N[C@@H](CO)C(=O)N[C@@H](CC(C)C)C(=O)N[C@@H](CC(=O)O)C(=O)N[C@H](C(=O)N1CCC[C@H]1C(=O)N[C@H](C(=O)N[C@@H](CCCCN)C(=O)N[C@@](C)(CC(C)C)C(=O)N[C@@H](CCCCNC(=O)CC[C@H](NC(=O)CCCCCCCCCCCCCCC(=O)O)C(=O)O)C(=O)N[C@@H](CCC(N)=O)C(=O)N[C@H](C(=O)N[C@@H](CC(C)C)C(=O)N[C@@H](CC(C)C)C(=O)N[C@@H](CCCCN)C(=O)N[C@@H](CCC(N)=O)C(=O)N[C@@H](CCC(=O)O)C(=O)N[C@@H](CCCNC(=N)N)C(=O)N[C@@H](CCC(N)=O)C(=O)N[C@@H](CCCCN)C(=O)N[C@@H](CCCCN)C(=O)N[C@@H](CCC(N)=O)C(=O)N[C@@H](CCCNC(=N)N)C(=O)N[C@@H](CCC(=O)O)C(=O)N[C@@H](CCC(N)=O)C(=O)N[C@@H](C)C(=O)N[C@@H](CCC(=O)O)C(=O)N[C@@H](CCCCN)C(=O)N[C@@H](CC(N)=O)C(=O)NC(C)(C)C(=O)N[C@@H](CCC(N)=O)C(=O)N[C@H](C(=O)N[C@@H](CC(C)C)C(=O)N[C@@H](CCC(=O)O)C(=O)N[C@@H](CCC(N)=O)C(=O)N[C@H](C(N)=O)C(C)C)[C@@H](C)CC)[C@@H](C)CC)[C@@H](C)CC)C(C)C)C(C)C
B6: SEQ ID NO 96 (peptide)
peptide: Pentanoyl-VLSLDVPIKLK([AEEA-AEEA-γGlu-C18 diacid])KILLEQEKQKKQREQAETNKQILAQV-NH2
SMILES: CCCCC(=O)N[C@H](C(=O)N[C@@H](CC(C)C)C(=O)N[C@@H](CO)C(=O)N[C@@H](CC(C)C)C(=O)N[C@@H](CC(=O)O)C(=O)N[C@H](C(=O)N1CCC[C@H]1C(=O)N[C@H](C(=O)N[C@@H](CCCCN)C(=O)N[C@@H](CC(C)C)C(=O)N[C@@H](CCCCNC(=O)COCCOCCNC(=O)COCCOCCNC(=O)CC[C@H](NC(=O)CCCCCCCCCCCCCCCCC(=O)O)C(=O)O)C(=O)N[C@@H](CCCCN)C(=O)N[C@H](C(=O)N[C@@H](CC(C)C)C(=O)N[C@@H](CC(C)C)C(=O)N[C@@H](CCC(=O)O)C(=O)N[C@@H](CCC(N)=O)C(=O)N[C@@H](CCC(=O)O)C(=O)N[C@@H](CCCCN)C(=O)N[C@@H](CCC(N)=O)C(=O)N[C@@H](CCCCN)C(=O)N[C@@H](CCCCN)C(=O)N[C@@H](CCC(N)=O)C(=O)N[C@@H](CCCNC(=N)N)C(=O)N[C@@H](CCC(=O)O)C(=O)N[C@@H](CCC(N)=O)C(=O)N[C@@H](C)C(=O)N[C@@H](CCC(=O)O)C(=O)N[C@H](C(=O)N[C@@H](CC(N)=O)C(=O)N[C@@H](CCCCN)C(=O)N[C@@H](CCC(N)=O)C(=O)N[C@H](C(=O)N[C@@H](CC(C)C)C(=O)N[C@@H](C)C(=O)N[C@@H](CCC(N)=O)C(=O)N[C@H](C(N)=O)C(C)C)[C@@H](C)CC)[C@@H](C)O)[C@@H](C)CC)[C@@H](C)CC)C(C)C)C(C)C

Experiments:
CRF1R receptor = target: T1, CRF1R receptor (UniProt P34998 24-415, limits assumed); assay: cell-based or functional assay
T1 sequence (looked up): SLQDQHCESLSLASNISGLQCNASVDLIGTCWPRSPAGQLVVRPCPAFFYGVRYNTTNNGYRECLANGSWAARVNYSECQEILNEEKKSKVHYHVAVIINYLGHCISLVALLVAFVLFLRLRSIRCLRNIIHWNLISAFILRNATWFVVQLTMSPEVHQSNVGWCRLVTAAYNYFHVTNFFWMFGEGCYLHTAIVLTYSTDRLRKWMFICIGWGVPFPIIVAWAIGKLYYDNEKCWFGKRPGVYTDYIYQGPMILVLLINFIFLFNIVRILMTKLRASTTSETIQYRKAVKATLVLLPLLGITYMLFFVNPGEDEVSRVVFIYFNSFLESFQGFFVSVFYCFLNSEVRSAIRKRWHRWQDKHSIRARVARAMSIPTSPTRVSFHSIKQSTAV

[1] = target: human corticotropin-releasing factor 2a (CRF2a receptor) (human), Q13324; assay: cell-based or functional assay
Sequence of human corticotropin-releasing factor 2a (CRF2a receptor) (human), Q13324 (Q13324 20-411): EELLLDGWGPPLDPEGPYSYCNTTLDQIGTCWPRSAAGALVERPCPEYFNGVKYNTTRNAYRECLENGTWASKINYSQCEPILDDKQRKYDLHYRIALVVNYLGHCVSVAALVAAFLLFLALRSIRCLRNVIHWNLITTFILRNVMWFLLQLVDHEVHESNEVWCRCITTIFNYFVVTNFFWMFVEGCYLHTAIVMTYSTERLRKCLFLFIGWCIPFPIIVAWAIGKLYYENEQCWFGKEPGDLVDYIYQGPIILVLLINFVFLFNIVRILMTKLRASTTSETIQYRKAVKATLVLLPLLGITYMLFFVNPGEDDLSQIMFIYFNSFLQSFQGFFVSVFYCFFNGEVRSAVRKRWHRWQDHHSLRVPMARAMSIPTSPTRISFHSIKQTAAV

| Binder | EC50 (CRF1R receptor) | Emax (% I) (CRF1R receptor) | EC50 [nM] (cAMP) [1] |
| --- | --- | --- | --- |
| B1 | > 250 nM | 6% | 5.02 nM |
| B2 | > 250 nM | 1% | 18.6 nM |
| B3 |  | 5% | 0.76 nM |
| B4 |  | 0% | 3.17 nM |
| B5 |  | 6% | 0.28 nM |
| B6 |  | 4% | 0.49 nM |

— US20260001928A1 (CORTERIA PHARMACEUTICALS, priority 2022, published 2026)
